First the molecules themselves.
T1: human CD39 endogenously expressed on Ramos human lymphoma cells (human, UniProt P49961 1-510)
T1 sequence: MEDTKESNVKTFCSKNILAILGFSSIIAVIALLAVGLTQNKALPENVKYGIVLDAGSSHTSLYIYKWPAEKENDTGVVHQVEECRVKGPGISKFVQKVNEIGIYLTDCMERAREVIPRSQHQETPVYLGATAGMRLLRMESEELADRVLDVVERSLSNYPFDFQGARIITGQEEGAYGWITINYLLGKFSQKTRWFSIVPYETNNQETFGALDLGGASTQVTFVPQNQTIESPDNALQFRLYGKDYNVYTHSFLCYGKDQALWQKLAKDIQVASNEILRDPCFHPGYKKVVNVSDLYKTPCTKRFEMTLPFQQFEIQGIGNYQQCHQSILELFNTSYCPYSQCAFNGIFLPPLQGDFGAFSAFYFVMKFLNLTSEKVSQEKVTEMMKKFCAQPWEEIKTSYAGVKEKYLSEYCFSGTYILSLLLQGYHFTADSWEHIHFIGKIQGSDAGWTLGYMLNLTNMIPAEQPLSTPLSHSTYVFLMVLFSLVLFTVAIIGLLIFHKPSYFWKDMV

T2: Human CD39-L2 (human, UniProt O75354 61-484, limits assumed)
T2 construct: Recombinant protein coated on ELISA plates; also called NTPDase6; ENTPD6
T2 sequence: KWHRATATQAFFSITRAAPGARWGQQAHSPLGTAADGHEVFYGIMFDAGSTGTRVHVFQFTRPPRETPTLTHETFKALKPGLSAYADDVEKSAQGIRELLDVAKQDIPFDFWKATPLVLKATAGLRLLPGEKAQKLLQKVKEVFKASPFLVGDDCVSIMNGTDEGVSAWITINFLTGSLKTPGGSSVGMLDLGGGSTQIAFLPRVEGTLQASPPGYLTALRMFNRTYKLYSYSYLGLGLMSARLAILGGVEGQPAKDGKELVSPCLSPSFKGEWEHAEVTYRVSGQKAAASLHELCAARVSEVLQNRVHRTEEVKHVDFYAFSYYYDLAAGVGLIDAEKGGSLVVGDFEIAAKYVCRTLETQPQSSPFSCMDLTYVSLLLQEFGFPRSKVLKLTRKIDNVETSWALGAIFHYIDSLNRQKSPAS

T3: Human CD39-L3 (human, UniProt O75355 44-485, limits assumed)
T3 construct: Recombinant protein coated on ELISA plates; also called NTPDase3; ENTPD3
T3 sequence: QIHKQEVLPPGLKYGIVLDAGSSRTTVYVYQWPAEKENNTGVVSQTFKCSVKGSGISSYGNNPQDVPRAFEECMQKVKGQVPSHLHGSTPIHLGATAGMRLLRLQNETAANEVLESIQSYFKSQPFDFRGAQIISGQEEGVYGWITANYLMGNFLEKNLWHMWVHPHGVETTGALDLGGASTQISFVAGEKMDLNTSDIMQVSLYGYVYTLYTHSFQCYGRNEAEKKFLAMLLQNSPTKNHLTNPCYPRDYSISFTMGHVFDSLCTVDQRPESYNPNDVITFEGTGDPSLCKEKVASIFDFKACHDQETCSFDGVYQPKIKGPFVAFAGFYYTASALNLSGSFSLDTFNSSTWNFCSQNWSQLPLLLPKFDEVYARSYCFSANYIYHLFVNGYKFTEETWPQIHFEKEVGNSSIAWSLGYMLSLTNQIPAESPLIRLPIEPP

T4: Human CD39-L4 (human, UniProt O75356 25-428)
T4 construct: Recombinant protein coated on ELISA plates; also called NTPDase5; ENTPD5
T4 sequence: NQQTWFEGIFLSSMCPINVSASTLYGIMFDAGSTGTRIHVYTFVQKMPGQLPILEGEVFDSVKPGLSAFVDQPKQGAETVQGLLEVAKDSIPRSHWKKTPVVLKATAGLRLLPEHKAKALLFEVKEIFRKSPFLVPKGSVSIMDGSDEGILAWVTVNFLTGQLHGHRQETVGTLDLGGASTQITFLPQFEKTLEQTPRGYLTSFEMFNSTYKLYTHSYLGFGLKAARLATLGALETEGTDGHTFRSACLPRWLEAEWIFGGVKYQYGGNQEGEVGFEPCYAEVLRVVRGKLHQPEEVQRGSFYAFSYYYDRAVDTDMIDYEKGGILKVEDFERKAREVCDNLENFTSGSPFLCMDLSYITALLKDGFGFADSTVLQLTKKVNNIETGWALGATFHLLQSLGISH

B1: mAb3 (antibody, human IgG1, V domains shown)
VH: QVQLVQSGSELKKPGASVKVSCKASGYTFTHYGMNWVRQAPGKGLKWMGWINTYTGEPTYADDFKGRFVFSLDTSVSTAYLQISSLKAEDTAVYYCARRRYEGNYVFYYFDYWGQGTTVTVSS
VL: DIQMTQSPSSLSASVGDRVTITCRASENIYSYFSWYQQKPGKAPKLLIYTAKTLAEGVPSRFSGSGSGTDFTLTISSLQPEDFATYYCQHHYVTPYTFGGGTKVEIK
notes: Produced as Fc silent recombinant human IgG1 with heavy chain N297Q (Kabat EU numbering) and huCk constant domain; also called anti-CD39 antibody mAb3
B2: mAb1 (antibody, human IgG1, V domains shown)
VH: B1 VH with K43Q, K46E
VL: B1 VL
notes: Produced as Fc silent recombinant human IgG1 with heavy chain N297Q (Kabat EU numbering) and huCk constant domain; also called anti-CD39 antibody mAb1
B3: mAb2 (antibody, human IgG1, V domains shown)
VH: B1 VH with K43Q
VL: B1 VL
notes: Produced as Fc silent recombinant human IgG1 with heavy chain N297Q (Kabat EU numbering) and huCk constant domain; also called anti-CD39 antibody mAb2
B4: mAb6 (antibody, human IgG1, V domains shown)
VH: B1 VH
VL: B1 VL with I48V
notes: Produced as Fc silent recombinant human IgG1 with heavy chain N297Q (Kabat EU numbering) and huCk constant domain; also called anti-CD39 antibody mAb6
B5: mAb4 (antibody, human IgG1, V domains shown)
VH: B1 VH with V2I, T74A
VL: B1 VL
notes: Produced as Fc silent recombinant human IgG1 with heavy chain N297Q (Kabat EU numbering) and huCk constant domain; also called anti-CD39 antibody mAb4
B6: mAb7 (antibody, human IgG1, V domains shown)
VH: B1 VH with V2I, T74A
VL: B1 VL with I48V
notes: Produced as Fc silent recombinant human IgG1 with heavy chain N297Q (Kabat EU numbering) and huCk constant domain; also called anti-CD39 antibody mAb7
B7: mAb5 (antibody, human IgG1, V domains shown)
VH: B1 VH with K43Q
VL: B1 VL with I48V
notes: Produced as Fc silent recombinant human IgG1 with heavy chain N297Q (Kabat EU numbering) and huCk constant domain; also called anti-CD39 antibody mAb5

Positions count from the first letter of the chain named. Numbers in names are those of the source.

In the first experiment the target is T1, human CD39 endogenously expressed on …. Briefly: cell-based or functional assay.
For the molecule B1, the “inhibition of CD39 enzymatic activity (AMP generated by Ramos cells, Maldi TOF)” value (shortened to “inhibition of CD39 enzymatic activity”) was at least 90%.

B2: the “inhibition of CD39 enzymatic activity” value is at least 90%.

In the case of B3, the “inhibition of CD39 enzymatic activity” value is at least 90%.

For the molecule B4, the “inhibition of CD39 enzymatic activity” value was at least 90%.

For the molecule B5, the “inhibition of CD39 enzymatic activity” value is at least 90%.

Turning to B6, the “inhibition of CD39 enzymatic activity” value was at least 90%.

For B7, the “inhibition of CD39 enzymatic activity” value is at least 90%.

Another experiment deals with T2, Human CD39-L2. Briefly: ELISA, recombinant isoform coated, dose range of antibody. On the procedure:
(§1) Antibodies were tested for binding to recombinant human CD39 isoforms (Rec-huCD39 isoforms). The CD39 isoforms having amino acid sequences shown in the table below were coated in 96-well plate in PBS 1× at 500 ng/ml or 1 μg/ml at 4° C. overnight. Wells were washed in TBS Tween 20, and further saturated 2H at RT in TBS Blocking buffer (Thermo Fisher Scientific Inc.). Dose range concentration of primary antibody was incubated in TBS blocking buffer for 2 h at RT. Wells were washed in TBS Tween 20. […] Optical density was measured on Enspire at OD=450.
On the technique in general: In an ELISA, binding on a coated surface is turned into a signal by an enzyme label.
On to B1, for which the binding result is on record as “no binding”.

Regarding B2, the binding result is “no binding”.

Regarding B3, the binding result was “no binding”.

On to B4, for which the binding result was “no binding”.

Turning to B5, the binding result is on record as “no binding”.

Take B6: the binding result is recorded as “no binding”.

B7: the binding result was “no binding”.

A further experiment concerns the target T3, Human CD39-L3. Described as above. The protocol: as §1
In the case of B1, the binding result is “no binding”.

For B2, the binding result was “no binding”.

As to B3, the binding result is reported as “no binding”.

Regarding B4, the binding result is reported as “no binding”.

On to B5, for which the binding result is “no binding”.

For B6, the binding result is reported as “no binding”.

As to B7, the binding result is given as “no binding”.

The next experiment deals with T4, Human CD39-L4. The description is as above. The protocol:
as §1
B1: the binding result is reported as “no binding”.

On to B2, for which the binding result is on record as “no binding”.

As for B3, the binding result is “no binding”.

Take B4: the binding result is recorded as “no binding”.

On to B5, for which the binding result is on record as “no binding”.

For the molecule B6, the binding result is “no binding”.

As for B7, the binding result is on record as “no binding”.
